In patent publication US20190024095A1:

Target: CD19 on Raji B cells (UniProt P15391)
Test: cell-based or functional assay

Chain of UniProt P15391 (P15391 20-556 limits assumed): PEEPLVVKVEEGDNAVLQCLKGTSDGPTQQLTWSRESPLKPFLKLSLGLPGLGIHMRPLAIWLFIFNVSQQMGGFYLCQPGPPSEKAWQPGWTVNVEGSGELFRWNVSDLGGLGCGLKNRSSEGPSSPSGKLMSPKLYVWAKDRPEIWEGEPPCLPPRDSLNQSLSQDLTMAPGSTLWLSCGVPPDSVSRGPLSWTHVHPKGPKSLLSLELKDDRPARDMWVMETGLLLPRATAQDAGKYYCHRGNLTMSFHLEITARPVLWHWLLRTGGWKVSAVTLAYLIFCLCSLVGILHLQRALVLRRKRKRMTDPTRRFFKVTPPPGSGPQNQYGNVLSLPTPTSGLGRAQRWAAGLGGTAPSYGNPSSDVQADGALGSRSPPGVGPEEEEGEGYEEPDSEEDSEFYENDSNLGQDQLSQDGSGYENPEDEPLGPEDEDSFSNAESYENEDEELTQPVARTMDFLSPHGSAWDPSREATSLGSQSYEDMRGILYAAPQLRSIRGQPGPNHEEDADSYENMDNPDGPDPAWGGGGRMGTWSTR

change in IL-12 expression (NFAT promoter, 3'-UTR not responsive to CAR stimulation): 50 fold
change in IL-12 expression (NFAT promoter, RDE1 (Gold1)): 168 fold
change in IL-12 expression (minP promoter, RDE1 (Gold1)): 6.3 fold
change in activated cells in the population (CD25, CD69; GFP-RDE1 bicistronic construct): 0.9 to 84.8%
change in activated cells in the population (CD25, CD69; GFP-RDE2.1 bicistronic construct): 3.9 to 12.1%
change in activated cells in the population (CD25, CD69; doubly transduced T-cells): 0.9 to 56.9%
change in activated cells in the population (CD25, CD69; singly transduced, bicistronic construct): 3.6 to 5.8%
increase in bioluminescence (MinP promoter, RDE1): 4.1 fold
increase in bioluminescence (MinP promoter, RDE2): 1.8 fold
increase in bioluminescence (MinP promoter, RDE3): 1.4 fold
increase in bioluminescence (NFAT promoter, RDE1): 8.5 fold
increase in bioluminescence (NFAT promoter, RDE2): 3.1 fold
increase in bioluminescence (NFAT promoter, RDE3): 1.3 fold
increase in fluorescence (GFP-RDE1): 6.5%
increase in fluorescence (GFP-RDE2, doubly transduced T-cells): 19.5 to 42.5%
Substance: anti-CD19 CAR (anti-CD19 CAR cassette as described in WO 2012/079000), expressed on transduced T-cells
